# Where two headings read alike, the source gives them in different places.
# Tests used:
# [1] = target: Mos1 transposase D284A (with T216A), catalytically inactive mutant (Drosophila mauritiana); test: SEC
# [2] = target: Mos1 transposase R48Q/Q100R (with T216A), DNA binding deficient mutant (Drosophila mauritiana); test: SEC
# [3] = target: Mos1 transposase R48Q/Q100R D284A (with T216A), DNA binding and catalytically inactive mutant (Drosophila mauritiana); test: SEC
# [4] = target: T1, Mos1 transposase R48Q/Q100R (Drosophila mauritiana (mariner Mos1), UniProt Q7JQ07 1-345, R48Q;Q100R;T216A); test: EMSA
# T1 sequence: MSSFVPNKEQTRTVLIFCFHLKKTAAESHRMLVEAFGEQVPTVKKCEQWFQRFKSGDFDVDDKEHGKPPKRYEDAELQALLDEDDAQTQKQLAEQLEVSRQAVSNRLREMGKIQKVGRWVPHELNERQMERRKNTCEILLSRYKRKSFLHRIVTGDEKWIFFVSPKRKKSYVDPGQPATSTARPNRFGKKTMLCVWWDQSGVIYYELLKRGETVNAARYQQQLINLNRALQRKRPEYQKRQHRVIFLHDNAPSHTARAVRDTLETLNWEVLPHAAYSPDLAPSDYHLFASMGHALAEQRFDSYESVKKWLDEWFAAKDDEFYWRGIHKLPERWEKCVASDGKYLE
# [5] = target: T2, Mos1 transposase T216A (Drosophila mauritiana (mariner Mos1), UniProt Q7JQ07 1-345, T216A); test: X-ray crystallography
# T2 sequence: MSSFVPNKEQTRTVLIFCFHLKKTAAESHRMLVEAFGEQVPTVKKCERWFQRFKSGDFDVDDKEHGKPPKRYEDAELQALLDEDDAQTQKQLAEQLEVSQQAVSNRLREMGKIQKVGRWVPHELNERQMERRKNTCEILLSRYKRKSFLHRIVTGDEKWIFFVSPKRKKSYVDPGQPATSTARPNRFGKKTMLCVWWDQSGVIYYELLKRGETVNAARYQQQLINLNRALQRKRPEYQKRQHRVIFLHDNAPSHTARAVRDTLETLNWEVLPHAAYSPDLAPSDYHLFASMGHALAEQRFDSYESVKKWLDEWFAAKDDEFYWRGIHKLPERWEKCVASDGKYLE
# [6] = target: T2, Mos1 transposase T216A; test: X-ray crystallography; remark: listed apart in the source
molecule,measurement,setting,value
"Mos1 transposase D284A (with T216A), catalytically inactive mutant (enzyme)",stoichiometry N,[1],2
"Mos1 transposase R48Q/Q100R (with T216A), DNA binding deficient mutant (enzyme)",stoichiometry N,[2],2
"Mos1 transposase R48Q/Q100R D284A (with T216A), DNA binding and catalytically inactive mutant (enzyme)",stoichiometry N,[3],2
100 bp IRR plus flank NTS cleavage substrate (dsDNA) DNA 1: ACGGGCTCCAGTCGGTGAATATAGAAACTATCAGGTGTACAAGTATGAAATGTCGTTTTTTTTAAATCAAAAAACACGTTAAATTTTGTGGAAAAAGAAA DNA 2: TTTCTTTTTCCACAAAATTTAACGTGTTTTTTGATTTAAAAAAAACGACATTTCATACTTGTACACCTGATAGTTTCTATATTCACCGACTGGAGCCCGT,binding result,[4],no binding
"IRR duplex with 5-iodo-dU at T16 (dsDNA, 5-iodo-dU replacing T16 (NTS nucleotide 13 by structure numbering); 5' phosphate on NTS presumed) DNA 1: AAACGACATTTCATACTTGTACACCTGA DNA 2: GGTGTACAAGTATGAAATGTCGTTT",binding result,[5],binds
"pre-cleaved IRR duplex (28 nt TS / 25 nt NTS) (dsDNA, 5' phosphate on NTS) DNA 1: AAACGACATTTCATACTTGTACACCTGA DNA 2: GGTGTACAAGTATGAAATGTCGTTT",binding result,[6],binds
